This note sets out measurements from patent publication US20260184765A1 (INVENRA, published 2026).

The target of this assay is CTLA4 (UniProt P16410 36-161, limits assumed). Put plainly: Octet BLI, antigen immobilized, B-Body as analyte. From the text:
In each instance, the antigen is immobilized and the B-Body is the analyte.
(Biolayer interferometry detects binding as a change in optical thickness at a sensor tip.)

Chain of CTLA4 (P16410 36-161 limits assumed): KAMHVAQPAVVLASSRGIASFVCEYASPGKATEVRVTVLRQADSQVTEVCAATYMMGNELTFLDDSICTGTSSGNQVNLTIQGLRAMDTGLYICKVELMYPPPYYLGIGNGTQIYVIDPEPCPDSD

B1: bivalent bispecific B-Body "BC1" (bispecific antibody)
chain 1: not shown
chain 2: EVQLVESGGGLVQPGGSLRLSCAASGFTFSDYDIHWVRQAPGKGLEWVGDITPYDGTTNYADSVKGRFTISADTSKNTAYLQMNSLRAEDTAVYYCARLVGEIATGFDYWGQGTLVTVSSASPREPQVYTDPPSRDELTKNQVSLTCLVKGFYPSDIAVEWESNGQPENNYKTTPPVLDSDGSFFLYSKLTVDKSRWQQGNVFSCSVMHEALHNHYTQKSLSLSGEC
chain 3: not shown
chain 4: QVQLVESGGGVVQPGRSLRLDCKASGITFSNSGMHWVRQAPGKGLEWVAVIWYDGSKRYYADSVKGRFTISRDNSKNTLFLQMNSLRAEDTAVYYCATNDDYWGQGTLVTVSSASTKGPSVFPLAPSSKSTSGGTAALGCLVKDYFPEPVTVSWNSGALTSGVHTFPAVLQSSGLYSLSSVVTVPSSSLGTQTYICNVNHKPSNTKVDKKVEPPKSC
notes: Specific for PD1 (nivolumab variable regions) and Antigen A; four different chains, one of each; also called bivalent 1×1 bispecific construct BC1
As to B1, the binding result is given as “no binding”.
